The values that follow come from publication PMC11927175, “Global profiling of CPL3-mediated alternative splicing reveals regulatory mechanisms of DGK5 in plant immunity and phosphatidic acid homeostasis” (Genome Biology, 2025).

In assay [1] the target is T1, glutathione S-transferase (GST)-tagged BIK1 (BOTRYTIS-INDUCED KINASE 1) (Arabidopsis thaliana (Mouse-ear cress), UniProt O48814).
T1 chain: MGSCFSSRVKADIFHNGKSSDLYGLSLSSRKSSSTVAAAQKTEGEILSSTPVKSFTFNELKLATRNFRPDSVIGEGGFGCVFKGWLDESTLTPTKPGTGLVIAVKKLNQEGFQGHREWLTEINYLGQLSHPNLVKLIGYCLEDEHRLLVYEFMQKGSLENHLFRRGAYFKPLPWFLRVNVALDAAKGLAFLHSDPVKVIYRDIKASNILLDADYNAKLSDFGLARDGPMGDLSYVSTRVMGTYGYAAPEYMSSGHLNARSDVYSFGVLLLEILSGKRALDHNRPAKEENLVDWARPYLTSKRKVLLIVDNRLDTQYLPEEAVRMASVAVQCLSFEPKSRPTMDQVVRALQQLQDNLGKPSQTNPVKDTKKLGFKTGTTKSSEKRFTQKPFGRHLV
The assay can be described thus: GST pull-down.

Assay [2] deals with T2, six histidine-tagged DGK5β (…OL KINASE 5, constitutive full-length isoform) (Arabidopsis thaliana, UniProt Q9C5E5 1-509).
T2 construct: …OL KINASE 5, isoform DGK5β, Arabidopsis thaliana, AT2G20900; printed size 57.4 kDa; Ser506 lies in the CBD; also called HIS-DGK5β; source: E. coli BL21, purified (Ni-NTA agarose)
T2 sequence (looked up): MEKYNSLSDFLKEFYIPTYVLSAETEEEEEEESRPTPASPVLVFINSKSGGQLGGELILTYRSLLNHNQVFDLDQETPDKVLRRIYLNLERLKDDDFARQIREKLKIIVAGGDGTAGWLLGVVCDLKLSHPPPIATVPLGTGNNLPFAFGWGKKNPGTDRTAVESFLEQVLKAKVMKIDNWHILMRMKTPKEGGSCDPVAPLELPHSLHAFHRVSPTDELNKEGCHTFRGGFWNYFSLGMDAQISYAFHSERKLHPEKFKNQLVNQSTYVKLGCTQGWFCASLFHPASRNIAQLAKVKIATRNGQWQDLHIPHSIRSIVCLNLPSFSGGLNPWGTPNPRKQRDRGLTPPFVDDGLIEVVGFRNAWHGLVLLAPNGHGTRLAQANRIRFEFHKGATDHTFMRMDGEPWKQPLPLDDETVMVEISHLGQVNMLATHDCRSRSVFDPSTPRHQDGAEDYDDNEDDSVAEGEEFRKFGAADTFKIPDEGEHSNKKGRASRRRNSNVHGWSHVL
Kind of assay: pull-down; GST-BIK1 immobilised on glutathione agarose beads, blocked with BSA, incubated with 2 μg HIS-DGK5β or HIS-DGK5α in 300 μl incubation buffer (20 mM Tris-HCl pH 7.5, 100 mM NaCl, 0.1 mM EDTA, 0.2% Triton X-100) at 4 °C for 1 h; washed with 300 mM NaCl buffer; immunoblot with α-HIS and α-GST. The note with it: both partners purified. A general note: In western blotting, separated proteins are transferred to a membrane and probed.

B1: six histidine-tagged DGK5β (…OL KINASE 5, constitutive full-length isoform) (protein)
chain: MEKYNSLSDFLKEFYIPTYVLSAETEEEEEEESRPTPASPVLVFINSKSGGQLGGELILTYRSLLNHNQVFDLDQETPDKVLRRIYLNLERLKDDDFARQIREKLKIIVAGGDGTAGWLLGVVCDLKLSHPPPIATVPLGTGNNLPFAFGWGKKNPGTDRTAVESFLEQVLKAKVMKIDNWHILMRMKTPKEGGSCDPVAPLELPHSLHAFHRVSPTDELNKEGCHTFRGGFWNYFSLGMDAQISYAFHSERKLHPEKFKNQLVNQSTYVKLGCTQGWFCASLFHPASRNIAQLAKVKIATRNGQWQDLHIPHSIRSIVCLNLPSFSGGLNPWGTPNPRKQRDRGLTPPFVDDGLIEVVGFRNAWHGLVLLAPNGHGTRLAQANRIRFEFHKGATDHTFMRMDGEPWKQPLPLDDETVMVEISHLGQVNMLATHDCRSRSVFDPSTPRHQDGAEDYDDNEDDSVAEGEEFRKFGAADTFKIPDEGEHSNKKGRASRRRNSNVHGWSHVL
As to B1, the binding result in assay [1] is recorded as “binds”.

B2: glutathione S-transferase (GST)-tagged BIK1 (BOTRYTIS-INDUCED KINASE 1) (enzyme, Arabidopsis thaliana, UniProt O48814 1-395, looked up)
chain: MGSCFSSRVKADIFHNGKSSDLYGLSLSSRKSSSTVAAAQKTEGEILSSTPVKSFTFNELKLATRNFRPDSVIGEGGFGCVFKGWLDESTLTPTKPGTGLVIAVKKLNQEGFQGHREWLTEINYLGQLSHPNLVKLIGYCLEDEHRLLVYEFMQKGSLENHLFRRGAYFKPLPWFLRVNVALDAAKGLAFLHSDPVKVIYRDIKASNILLDADYNAKLSDFGLARDGPMGDLSYVSTRVMGTYGYAAPEYMSSGHLNARSDVYSFGVLLLEILSGKRALDHNRPAKEENLVDWARPYLTSKRKVLLIVDNRLDTQYLPEEAVRMASVAVQCLSFEPKSRPTMDQVVRALQQLQDNLGKPSQTNPVKDTKKLGFKTGTTKSSEKRFTQKPFGRHLV
notes: BOTRYTIS-INDUCED KINASE 1 (BIK1), receptor-like cytoplasmic kinase, Arabidopsis thaliana, AT2G39660; also called GST-BIK1; source: E. coli BL21, purified (glutathione agarose)
On to B2, for which, in assay [2], the binding result is given as “binds”.
